Results on one substance are retold here after patent US20110154541A1.

The assay addresses horse-heart mitochondrial cytochrome c (horse) (UniProt P00004). Nature of the assay: cell-based or functional assay.
Sequence of UniProt P00004 (P00004 2-105 limits assumed): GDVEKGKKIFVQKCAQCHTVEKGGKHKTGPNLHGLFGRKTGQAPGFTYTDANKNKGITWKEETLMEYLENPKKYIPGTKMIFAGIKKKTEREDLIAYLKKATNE

For “Photosystem II with variant D1 protein D1-K238E, in thylakoid membranes isolated from the Synechocystis sp. PCC 6803 Glu mutant strain (from UniProt P16033 1-344)”, the rate of cc reduction (light-dependent, increase of the cc alpha peak at 550 nm), with DCMU (µmol/(mg chl·h)) was 20 and the rate of cc reduction (light-dependent, increase of the cc alpha peak at 550 nm), without DCMU (µmol/(mg chl·h)) turned out to be 12.
